B1: chymase C22S/D175N/A226R (enzyme)
chain: IIGGTESKPHSRPYMAYLEIVTSNGPSKFCGGFLIRRNFVLTAAHCAGRSITVTLGAHNITEEEDTWQKLEVIKQFRHPKYNTSTLHHDIMLLKLKEKASLTLAVGTLPFPSQFNFVPPGRMCRVAGWGRTGVLKPGSDTLQEVKLRLMDPQACSHFRNFDHNLQLCVGNPRKTKSAFKGDSGGPLLCAGVAQGIVSYGRSDAKPPRVFTRISHYRPWINQILQAN
B2: chymase C22S/K40M/F41V/L99N/G151R/F173S/S218E/A226R (enzyme)
chain: IIGGTESKPHSRPYMAYLEIVTSNGPSMVCGGFLIRRNFVLTAAHCAGRSITVTLGAHNITEEEDTWQKLEVIKQFRHPKYNTSTNHHDIMLLKLKEKASLTLAVGTLPFPSQFNFVPPGRMCRVAGWGRTGVLKPRSDTLQEVKLRLMDPQACSHSRDFDHNLQLCVGNPRKTKSAFKGDSGGPLLCAGVAQGIVSYGREDAKPPRVFTRISHYRPWINQILQAN
B3: chymase C22S/P38Q/V138I/A226R/F228A (enzyme)
chain: IIGGTESKPHSRPYMAYLEIVTSNGQSKFCGGFLIRRNFVLTAAHCAGRSITVTLGAHNITEEEDTWQKLEVIKQFRHPKYNTSTLHHDIMLLKLKEKASLTLAVGTLPFPSQFNFVPPGRMCRIAGWGRTGVLKPGSDTLQEVKLRLMDPQACSHFRDFDHNLQLCVGNPRKTKSAFKGDSGGPLLCAGVAQGIVSYGRSDAKPPRVATRISHYRPWINQILQAN
B4: chymase C22S/F41K/L99N/F173Y/D175N/S218L/A226R (enzyme)
chain: IIGGTESKPHSRPYMAYLEIVTSNGPSKKCGGFLIRRNFVLTAAHCAGRSITVTLGAHNITEEEDTWQKLEVIKQFRHPKYNTSTNHHDIMLLKLKEKASLTLAVGTLPFPSQFNFVPPGRMCRVAGWGRTGVLKPGSDTLQEVKLRLMDPQACSHYRNFDHNLQLCVGNPRKTKSAFKGDSGGPLLCAGVAQGIVSYGRLDAKPPRVFTRISHYRPWINQILQAN
B5: chymase C22S/S189T/A190S/F191S/A220L/A226R (enzyme)
chain: IIGGTESKPHSRPYMAYLEIVTSNGPSKFCGGFLIRRNFVLTAAHCAGRSITVTLGAHNITEEEDTWQKLEVIKQFRHPKYNTSTLHHDIMLLKLKEKASLTLAVGTLPFPSQFNFVPPGRMCRVAGWGRTGVLKPGSDTLQEVKLRLMDPQACSHFRDFDHNLQLCVGNPRKTKTSSKGDSGGPLLCAGVAQGIVSYGRSDLKPPRVFTRISHYRPWINQILQAN
B6: chymase C22S/K40M/F41I/L99H/G151R/F173S/S218L/A226R (enzyme)
chain: IIGGTESKPHSRPYMAYLEIVTSNGPSMICGGFLIRRNFVLTAAHCAGRSITVTLGAHNITEEEDTWQKLEVIKQFRHPKYNTSTHHHDIMLLKLKEKASLTLAVGTLPFPSQFNFVPPGRMCRVAGWGRTGVLKPRSDTLQEVKLRLMDPQACSHSRDFDHNLQLCVGNPRKTKSAFKGDSGGPLLCAGVAQGIVSYGRLDAKPPRVFTRISHYRPWINQILQAN
B7: chymase C22S/V138T/A190S/V213A/A226R (enzyme)
chain: IIGGTESKPHSRPYMAYLEIVTSNGPSKFCGGFLIRRNFVLTAAHCAGRSITVTLGAHNITEEEDTWQKLEVIKQFRHPKYNTSTLHHDIMLLKLKEKASLTLAVGTLPFPSQFNFVPPGRMCRTAGWGRTGVLKPGSDTLQEVKLRLMDPQACSHFRDFDHNLQLCVGNPRKTKSSFKGDSGGPLLCAGVAQGIASYGRSDAKPPRVFTRISHYRPWINQILQAN
B8: chymase C22S/A220S/A226R (enzyme)
chain: IIGGTESKPHSRPYMAYLEIVTSNGPSKFCGGFLIRRNFVLTAAHCAGRSITVTLGAHNITEEEDTWQKLEVIKQFRHPKYNTSTLHHDIMLLKLKEKASLTLAVGTLPFPSQFNFVPPGRMCRVAGWGRTGVLKPGSDTLQEVKLRLMDPQACSHFRDFDHNLQLCVGNPRKTKSAFKGDSGGPLLCAGVAQGIVSYGRSDSKPPRVFTRISHYRPWINQILQAN

The values that follow come from US20240117334A1, “FACTOR B PROTEASES” (Vertex Pharmaceuticals Incorporated, priority 2021, published 2024).

The target of the assay is Human Factor B (human) (UniProt P00751). Description: cell-based or functional assay.
Sequence of Human Factor B (human) (P00751 26-764 limits assumed): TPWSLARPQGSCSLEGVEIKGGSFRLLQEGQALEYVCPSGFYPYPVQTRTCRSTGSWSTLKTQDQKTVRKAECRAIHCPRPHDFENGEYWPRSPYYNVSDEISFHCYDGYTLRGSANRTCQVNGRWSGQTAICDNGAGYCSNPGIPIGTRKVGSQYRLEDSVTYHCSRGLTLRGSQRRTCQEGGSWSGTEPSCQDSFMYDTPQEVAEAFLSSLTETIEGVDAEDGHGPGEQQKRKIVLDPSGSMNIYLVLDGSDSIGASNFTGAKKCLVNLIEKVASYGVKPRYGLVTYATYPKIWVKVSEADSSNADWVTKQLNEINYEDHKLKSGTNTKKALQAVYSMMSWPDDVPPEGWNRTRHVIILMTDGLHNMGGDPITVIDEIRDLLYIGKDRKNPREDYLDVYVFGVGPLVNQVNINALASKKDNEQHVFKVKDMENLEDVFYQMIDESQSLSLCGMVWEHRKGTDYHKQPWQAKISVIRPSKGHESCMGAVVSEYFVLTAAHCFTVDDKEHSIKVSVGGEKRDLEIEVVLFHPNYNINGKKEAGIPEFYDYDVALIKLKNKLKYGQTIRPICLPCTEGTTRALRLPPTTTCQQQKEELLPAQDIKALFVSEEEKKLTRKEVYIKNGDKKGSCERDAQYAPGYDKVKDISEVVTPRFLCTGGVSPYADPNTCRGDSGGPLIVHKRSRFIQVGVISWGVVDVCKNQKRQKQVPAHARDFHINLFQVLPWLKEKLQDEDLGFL
With B1, the fB Cleavage EC50 is 0.564 µM and the fB Cleavage, 80% plasma EC50 is 7.77 µM.

On to B2, for which the fB Cleavage EC50 turned out to be 11.8 µM.

B3 displayed a fB Cleavage EC50 of 12.4 µM.

As to B4, the fB Cleavage EC50 was 0.077 µM.

Take B5: the fB Cleavage EC50 turned out to be 8.14 µM.

The molecule B6 displayed a fB Cleavage EC50 of 8.2 µM.

B7 showed a fB Cleavage EC50 of 6.71 µM.

B8 registered a fB Cleavage EC50 of 5.56 µM.
